Changes are numbered by the printed parent chain.

This is an account of results in patent publication US20110135573A1, “METALLOPROTEINASE 9 AND METALLOPROTEINASE 2 BINDING PROTEINS” (DYAX CORP., priority 2009, published 2011).

Sequences and labels used below:
B1: X0106-B02 (antibody, V domains shown)
VH: EVQLLESGGGLVQPGGSLRLSCAASGFTFSWYDMWWVRQAPGKGLEWVSVIYSSGGPTFYADSVKGRFTISRDNSKNTLYLQMNSLRAEDTAVYYCAKDRAYGDYVGWNGFDYWGQGTLVTVSS
VL: EIVLTQSPATLSLSPGERATLSCRASQSISSFLAWYQQKPGQAPRLLIYDASYRATGIPARFSGSGSGTDFTLTISSLEPEDFAVYYCQQRGNWPITFGQGTRLEIK
B2: X0106-F05 (antibody, V domains shown)
VH: B1 VH with W31L, P57Y, F59G
VL: B1 VL
B3: 539A-M0237-D02 hIgG1 (antibody, V domains shown)
VH: B1 VH with W31Q, D33P, V50Y, Y52V, S53P, P57R, F59Y
VL: B1 VL with E1D, V3Q, L4M, F83Y
B4: X0106-E04 (antibody, V domains shown)
VH: EVQLLESGGGLVQPGGSLRLSCAASGFTFSQYDMWWVRQAPGKGLEWVSVIYPSGTTFYADSVKGRFTISRDNSKNTLYLQMNSLRAEDTAVYYCAKDRAYGDYVGWNGFDYWGQGTLVTVSS
VL: B1 VL
B5: X0106-C03 (antibody, V domains shown)
VH: B1 VH with W31V, S53P, P57A, F59Y
VL: B1 VL
B6: M0301-D12 (Fab, V domains shown)
VH: B1 VH with W31M, P57Y, F59S
VL: B1 VL with E1D, V3Q, L4M, F83Y
B7: M0307-F04 (Fab, V domains shown)
VH: B1 VH with W31L, P57Y, F59G
VL: B1 VL with E1D, V3Q, L4M, F83Y
B8: M0301-A09 (Fab, V domains shown)
VH: B1 VH with W31Y, S53P, P57Y, F59A
VL: B1 VL with E1D, V3Q, L4M, F83Y
B9: M0275-D03 (Fab, V domains shown)
VH: B4 VH
VL: B1 VL with E1D, V3Q, L4M, F83Y
B10: M0275-E12 (Fab, V domains shown)
VH: B1 VH with W31H, P57F, F59G
VL: B1 VL with E1D, V3Q, L4M, F83Y
B11: M0274-G08 (Fab, V domains shown)
VH: B1 VH with W31V, S53P, P57A, F59Y
VL: B1 VL with E1D, V3Q, L4M, F83Y
B12: M0273-G07 (Fab, V domains shown)
VH: B1 VH with W31H, S53P, F59Y
VL: B1 VL with E1D, V3Q, L4M, F83Y
B13: M0273-C10 (Fab, V domains shown)
VH: B1 VH with W31F, D33P, V50Y, S53P, P57A
VL: B1 VL with E1D, V3Q, L4M, F83Y
B14: M0273-B10 (Fab, V domains shown)
VH: B1 VH with W31K, D33A, W35I, V50W, Y52P, S53P, P57Y, F59S
VL: B1 VL with E1D, V3Q, L4M, F83Y
B15: M0276-F11 (Fab, V domains shown)
VH: B1 VH
VL: B1 VL with E1D, V3Q, L4M, F83Y
B16: M0299-A12 (Fab, V domains shown)
VH: B1 VH with W31H, D33P, V50Y, Y52S, P57G
VL: B1 VL with E1D, V3Q, L4M, F83Y
B17: M0273-A11 (Fab, V domains shown)
VH: B1 VH with W31R, Y52S, S53P, P57A
VL: B1 VL with E1D, V3Q, L4M, F83Y
B18: M0272-H08 (Fab, V domains shown)
VH: B1 VH with W31A, S53P, P57T
VL: B1 VL with E1D, V3Q, L4M, F83Y
B19: M0256-D11 (Fab, V domains shown)
VH: B1 VH with W31H
VL: B1 VL with E1D, V3Q, L4M, F83Y

The first assay addresses mouse MMP-2 (R&D Systems #924-MP-010) (mouse) (UniProt P33434). The assay is described as follows: Ki,app, enzyme inhibition assay (fluorogenic peptide substrate), IgG.
As for B1, the Ki amounted to 4.2 nM.

B2: the Ki was 3 nM.

As to B3, the Ki is 76 nM.

B4 displayed a Ki of 3.9 nM.

As for B5, the Ki was found to be 3.2 nM.

The next assay has the same target. Description: Ki,app, enzyme inhibition assay (fluorogenic peptide substrate), small-scale sFab.
In turn, B6 showed a Ki of 25 nM.

Consider B7, for which the Ki amounted to 2.2 nM.

B8 gave a Ki of 21 nM.

The molecule B9 returned a Ki of 5.4 nM.

B10 had a Ki of 15 nM.

For B11, the Ki stood at 2.7 nM.

For the molecule B12, the Ki worked out at 22 nM.

As for B13, the Ki was found to be 18 nM.

With B14, the Ki amounted to 59 nM.

The molecule B15 registered a Ki of 3.7 nM.

The molecule B16 registered a Ki of 30 nM.

B17 gave a Ki of 32 nM.

As to B18, the Ki was determined as 46 nM.

B19 returned a Ki of 4.2 nM.

The target is the same in a further assay. Description: Ki,app, enzyme inhibition assay (fluorogenic peptide substrate), medium-scale sFab.
In turn, B6 yielded a Ki of 25 nM.

B7: the Ki was 2.2 nM.

B8 displayed a Ki of 21 nM.

As to B9, the Ki came out at 5.4 nM.

B10 had a Ki of 15 nM.

In turn, B11 returned a Ki of 2.7 nM.

Molecule B12 had a Ki of 22 nM.

Consider B13, for which the Ki turned out to be 18 nM.

Regarding B14, the Ki was determined as 59 nM.

Molecule B15 gave a Ki of 3.7 nM.

In turn, B16 had a Ki of 30 nM.

Take B17: the Ki is 32 nM.

In the case of B18, the Ki came to 46 nM.

B19: the Ki was 4.2 nM.
